For experiment [1], the target named is FcγRI (UniProt P12314). Nature of the experiment: SPR; Biacore T200; CM5 chip with immobilised anti-His antibody captures the His-tagged receptor or antigen; serial dilutions of antibody injected (120 s binding, 240 s dissociation, 30 µL/min); 20 °C; 1:1 binding kinetic model or steady-state affinity model.
Experiment [2] concerns the target FcRn (UniProt P55899). In words: SPR; Biacore T200, CM5 chip with immobilised anti-His antibody, 20 °C; His-tagged receptor or antigen captured; serial dilutions of anti-CD20 X-body, IgG or IgA injected (120 s binding, 240 s dissociation, 30 µL/min); 1:1 binding kinetic model or steady-state affinity model.
The target of experiment [3] is FcγRIIIa^V158 (human). The experiment is described as above.
The target of experiment [4] is FcγRIIa^H131 (human) (UniProt P12318). The description is as above.
FcγRIIa^H131 (human), sequence (P12318 34-217): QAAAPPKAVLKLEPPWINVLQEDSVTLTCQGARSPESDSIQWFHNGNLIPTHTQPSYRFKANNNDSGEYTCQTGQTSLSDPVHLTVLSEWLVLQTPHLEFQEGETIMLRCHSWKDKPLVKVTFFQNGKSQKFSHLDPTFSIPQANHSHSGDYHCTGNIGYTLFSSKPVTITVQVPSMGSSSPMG
Experiment [5] deals with FcγRIIb (human) (UniProt P31994). The description is as above.
FcγRIIb (human), sequence (P31994 43-217): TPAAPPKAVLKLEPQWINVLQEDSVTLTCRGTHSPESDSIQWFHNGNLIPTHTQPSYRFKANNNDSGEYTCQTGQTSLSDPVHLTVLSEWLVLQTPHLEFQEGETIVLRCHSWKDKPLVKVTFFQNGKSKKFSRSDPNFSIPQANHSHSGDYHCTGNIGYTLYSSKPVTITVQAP
Experiment [6] deals with FcγRIIIa^F158 (human) (UniProt P08637). Described as above.
FcγRIIIa^F158 (human), sequence (P08637 17-208): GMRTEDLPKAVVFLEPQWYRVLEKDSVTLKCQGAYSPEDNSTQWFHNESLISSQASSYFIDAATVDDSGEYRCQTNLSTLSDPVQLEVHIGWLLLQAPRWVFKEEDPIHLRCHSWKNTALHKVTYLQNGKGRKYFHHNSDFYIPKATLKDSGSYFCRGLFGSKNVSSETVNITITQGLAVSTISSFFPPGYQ
For experiment [7], the target named is CD20 (human) (UniProt P11836). The experiment is described as above.
CD20 (human), sequence (P11836 whole entry): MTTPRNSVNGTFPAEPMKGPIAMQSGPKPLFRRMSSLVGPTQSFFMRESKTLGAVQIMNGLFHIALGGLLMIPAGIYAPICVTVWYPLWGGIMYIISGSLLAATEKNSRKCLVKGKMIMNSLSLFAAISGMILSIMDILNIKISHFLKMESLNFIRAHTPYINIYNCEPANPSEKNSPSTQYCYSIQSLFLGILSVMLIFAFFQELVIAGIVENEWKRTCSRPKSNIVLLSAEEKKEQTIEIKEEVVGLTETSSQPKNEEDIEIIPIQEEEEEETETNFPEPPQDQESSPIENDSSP
The target of experiment [8] is CD89 (human) (UniProt P24071). Nature of the experiment: SPR; Biacore T200; CM5 chip with immobilised anti-His antibody captures the His-tagged receptor or antigen; serial dilutions of antibody injected (120 s binding, 240 s dissociation, 30 µL/min); 20 °C; 1:1 binding kinetic model or steady-state affinity model.
CD89 (human), sequence (P24071 22-287): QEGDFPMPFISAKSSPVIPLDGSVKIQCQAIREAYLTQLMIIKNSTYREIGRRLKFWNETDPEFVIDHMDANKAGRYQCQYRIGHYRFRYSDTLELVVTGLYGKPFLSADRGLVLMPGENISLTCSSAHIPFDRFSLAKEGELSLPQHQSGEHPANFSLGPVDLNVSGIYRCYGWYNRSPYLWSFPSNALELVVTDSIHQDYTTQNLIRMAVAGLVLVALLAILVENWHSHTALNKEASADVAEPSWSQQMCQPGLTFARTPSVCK

FcγRI, sequence (P12314 16-374): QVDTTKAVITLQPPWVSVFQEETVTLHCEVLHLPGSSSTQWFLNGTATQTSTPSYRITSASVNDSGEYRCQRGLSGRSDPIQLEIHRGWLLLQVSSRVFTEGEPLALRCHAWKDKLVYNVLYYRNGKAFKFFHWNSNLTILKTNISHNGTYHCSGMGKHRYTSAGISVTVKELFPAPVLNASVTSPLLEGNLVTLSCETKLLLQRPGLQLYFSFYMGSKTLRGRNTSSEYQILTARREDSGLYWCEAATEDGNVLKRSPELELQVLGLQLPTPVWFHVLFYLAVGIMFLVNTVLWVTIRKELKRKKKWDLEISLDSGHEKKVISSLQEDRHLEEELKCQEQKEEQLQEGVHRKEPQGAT

In the case of trastuzumab IgG (antibody), in experiment [1], the Kd worked out at 113 nM.
On to Rituximab IgG (antibody), for which the Kd came out at 0.0391 nM in experiment [2]; 0.0603 nM in experiment [3]; 0.0548 nM in experiment [4]; 0.00277 nM in experiment [5]; 0.0663 nM in experiment [6]; 3.74 nM in experiment [7].
Substance Rituximab IgA (antibody) yielded a Kd in experiment [7] of 6.71 nM.
As for trastuzumab IgA (antibody), the Kd in experiment [1] amounted to 272 nM; in experiment [8], 58.8 nM.

These data come from article PMC9706586.
